Results on one substance are retold here after patent US20100184636.

This data set concerns the target endogenous raptor (UniProt Q8N122).

endogenous raptor, sequence (Q8N122 whole entry, looked up): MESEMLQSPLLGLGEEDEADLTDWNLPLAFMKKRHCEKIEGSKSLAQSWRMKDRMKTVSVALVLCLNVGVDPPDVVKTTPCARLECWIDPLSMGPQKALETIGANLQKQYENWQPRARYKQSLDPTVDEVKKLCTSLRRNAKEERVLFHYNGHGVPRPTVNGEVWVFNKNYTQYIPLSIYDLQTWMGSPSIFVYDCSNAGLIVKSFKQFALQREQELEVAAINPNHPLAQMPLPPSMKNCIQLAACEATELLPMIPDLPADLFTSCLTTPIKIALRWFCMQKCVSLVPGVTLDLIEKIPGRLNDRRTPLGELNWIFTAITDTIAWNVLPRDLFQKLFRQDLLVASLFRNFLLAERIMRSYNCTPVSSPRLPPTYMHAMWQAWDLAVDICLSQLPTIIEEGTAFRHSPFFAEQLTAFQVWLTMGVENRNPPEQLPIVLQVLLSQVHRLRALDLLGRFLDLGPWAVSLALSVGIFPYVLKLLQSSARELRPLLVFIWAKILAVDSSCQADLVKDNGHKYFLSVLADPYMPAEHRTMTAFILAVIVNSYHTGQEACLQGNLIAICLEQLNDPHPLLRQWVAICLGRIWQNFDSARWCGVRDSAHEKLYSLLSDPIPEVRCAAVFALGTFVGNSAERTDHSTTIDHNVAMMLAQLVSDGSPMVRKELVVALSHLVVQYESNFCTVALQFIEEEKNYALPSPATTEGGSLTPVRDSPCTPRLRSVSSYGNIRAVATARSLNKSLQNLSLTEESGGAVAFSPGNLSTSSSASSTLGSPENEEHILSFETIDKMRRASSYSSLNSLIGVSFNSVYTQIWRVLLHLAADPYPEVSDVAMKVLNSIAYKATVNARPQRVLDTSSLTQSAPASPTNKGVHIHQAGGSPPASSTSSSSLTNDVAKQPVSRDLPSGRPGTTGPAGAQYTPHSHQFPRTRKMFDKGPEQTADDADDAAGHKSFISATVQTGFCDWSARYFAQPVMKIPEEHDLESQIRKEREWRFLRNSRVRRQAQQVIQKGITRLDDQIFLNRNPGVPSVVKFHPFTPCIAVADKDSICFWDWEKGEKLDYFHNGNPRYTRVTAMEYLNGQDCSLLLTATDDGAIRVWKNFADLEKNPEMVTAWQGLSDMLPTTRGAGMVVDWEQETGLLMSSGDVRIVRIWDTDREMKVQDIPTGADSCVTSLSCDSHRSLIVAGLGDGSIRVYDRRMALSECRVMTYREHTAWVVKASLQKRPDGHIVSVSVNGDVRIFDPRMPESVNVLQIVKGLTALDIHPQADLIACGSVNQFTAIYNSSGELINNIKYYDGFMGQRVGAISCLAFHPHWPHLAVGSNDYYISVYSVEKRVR

For phospholipase D2, wild type (PLD2^wt), the “exogenous PA-dependent phosphorylation of S6K1 (add-back)” value is “the exogenous PA-dependent phosphorylation of S6K1 was rescued by PLD2^wt and PLD2^K758R, but not by PLD2^F265A and PLD2^E266R”.
